Assay results as given in US20140087995A1 (published 2014).
Numbered stars: 1 amine (or outer) side, 2 acyl side, 3 side chain; on linkers, the order of the positions; unused ones are H or OH. Bridge positions count the residues as written; N and C are the ends. Side chains are listed from the residue outwards. Ends that are not written are not given here. * marks the point of attachment. C20 diacid = O=C(O)CCCCCCCCCCCCCCCCCCC(=O)*; γGlu = O=C(O)[C@H](CCC(=O)[*:2])N[*:1]; AEEA = NCCOCCOCC(=O)O

T1: human calcitonin receptor (human, UniProt P30988 25-474)
T1 construct: whole, on cells; also called hCTR; hCT
T1 sequence (looked up): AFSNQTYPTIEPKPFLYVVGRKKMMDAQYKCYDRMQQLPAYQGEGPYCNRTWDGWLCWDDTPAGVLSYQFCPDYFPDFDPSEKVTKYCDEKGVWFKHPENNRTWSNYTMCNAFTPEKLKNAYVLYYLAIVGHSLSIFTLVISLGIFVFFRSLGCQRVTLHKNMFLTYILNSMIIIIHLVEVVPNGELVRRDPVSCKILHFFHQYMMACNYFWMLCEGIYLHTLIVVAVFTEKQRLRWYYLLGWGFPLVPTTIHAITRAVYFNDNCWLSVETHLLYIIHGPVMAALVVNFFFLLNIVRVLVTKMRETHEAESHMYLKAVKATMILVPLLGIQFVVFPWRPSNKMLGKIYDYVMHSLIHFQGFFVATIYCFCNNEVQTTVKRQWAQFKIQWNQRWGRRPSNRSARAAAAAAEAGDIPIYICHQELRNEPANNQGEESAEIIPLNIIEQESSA


Target: T1, human calcitonin receptor
Assay: SPA competition with 125I-calcitonin, membranes of BHK hCTR cells (Assay VII)
Protocol: Membranes were prepared in the following way; the cells were rinsed with PBS and incubated with Versene for approximately 5 min before harvesting. The cells were flushed with PBS and the cell-suspension was centrifuged for 5 min at 1000 rpm. Cells were homogenized (Ultrathurrax) in a buffer containing 20 mM Na-HEPES and 10 mM EDTA (pH 7.4) and centrifuged at 20.000 rpm for 15 min. The resulting pellet was resuspended, homogenized and centrifuged (20.000 rpm, 15 min) in a buffer containing 20 mM Na-HEPES and 0.1 mM EDTA (pH 7.4, buffer 2). The resulting pellet was resuspended in buffer 2 and protein concentration was measured (BCA protein Assay, Pierce). The homogenate was kept cold during the whole procedure. The membranes were kept at −80° C. until use. Assay was performed in a 384 well Optiplate (PerkinElmer) in a total volume of 40 ul. Membranes were mixed with SPA beads. Final concentration of membranes 35 ng/μL final and Final concentration of SPA beads was 0.05 mg/well. Test-compounds were dissolved in DMSO and further diluted in assay buffer (50 mM Hepes, pH 7.4, 1 mM CaCl2, 5 mM MgCl₂, 0.1% OA and 0.02% Tween20). […] The final mixture was incubated for 120 min with shaking at 400 rpm at 25° C. prior to centrifugation (1500 rpm, 10 min). Samples were analyzed on TopCounter™ (Packard). The […] was calculated using (one site binding competition analysis) GraphPad Prism5 as a measure of receptor affinity.

| IC50 | Binder |
| --- | --- |
| 15.3 nM | K([AEEA-γGlu-C20 diacid])CNTATCATQRLANFLRHSSPNFGAIPSSTPVGSHTY-NH2 (disulfide 2-7; N-terminus assumed; SMILES CC[C@H](C)[C@H](NC(=O)[C@H](C)NC(=O)CNC(=O)[C@H](Cc1ccccc1)NC(=O)[C@H](CC(N)=O)NC(=O)[C@@H]1CCCN1C(=O)[C@H](CO)NC(=O)[C@H](CO)NC(=O)[C@H](Cc1c[nH]cn1)NC(=O)[C@H](CCCNC(=N)N)NC(=O)[C@H](CC(C)C)NC(=O)[C@H](Cc1ccccc1)NC(=O)[C@H](CC(N)=O)NC(=O)[C@H](C)NC(=O)[C@H](CC(C)C)NC(=O)[C@H](CCCNC(=N)N)NC(=O)[C@H](CCC(N)=O)NC(=O)[C@@H](NC(=O)[C@H](C)NC(=O)[C@@H]1CSSC[C@H](NC(=O)[C@@H](N)CCCCNC(=O)COCCOCCNC(=O)CC[C@H](NC(=O)CCCCCCCCCCCCCCCCCCC(=O)O)C(=O)O)C(=O)N[C@@H](CC(N)=O)C(=O)N[C@@H]([C@@H](C)O)C(=O)N[C@@H](C)C(=O)N[C@@H]([C@@H](C)O)C(=O)N1)[C@@H](C)O)C(=O)N1CCC[C@H]1C(=O)N[C@@H](CO)C(=O)N[C@@H](CO)C(=O)N[C@H](C(=O)N1CCC[C@H]1C(=O)N[C@H](C(=O)NCC(=O)N[C@@H](CO)C(=O)N[C@@H](Cc1c[nH]cn1)C(=O)N[C@H](C(=O)N[C@@H](Cc1ccc(O)cc1)C(N)=O)[C@@H](C)O)C(C)C)[C@@H](C)O, also called compound 57) |
| 9.63 nM | K([AEEA-γGlu-C20 diacid])CNTATCATQRLANFLRHSSPNFGAIPSSTNVGPHTY-NH2 (disulfide 2-7; N-terminus assumed; SMILES CC[C@H](C)[C@H](NC(=O)[C@H](C)NC(=O)CNC(=O)[C@H](Cc1ccccc1)NC(=O)[C@H](CC(N)=O)NC(=O)[C@@H]1CCCN1C(=O)[C@H](CO)NC(=O)[C@H](CO)NC(=O)[C@H](Cc1c[nH]cn1)NC(=O)[C@H](CCCNC(=N)N)NC(=O)[C@H](CC(C)C)NC(=O)[C@H](Cc1ccccc1)NC(=O)[C@H](CC(N)=O)NC(=O)[C@H](C)NC(=O)[C@H](CC(C)C)NC(=O)[C@H](CCCNC(=N)N)NC(=O)[C@H](CCC(N)=O)NC(=O)[C@@H](NC(=O)[C@H](C)NC(=O)[C@@H]1CSSC[C@H](NC(=O)[C@@H](N)CCCCNC(=O)COCCOCCNC(=O)CC[C@H](NC(=O)CCCCCCCCCCCCCCCCCCC(=O)O)C(=O)O)C(=O)N[C@@H](CC(N)=O)C(=O)N[C@@H]([C@@H](C)O)C(=O)N[C@@H](C)C(=O)N[C@@H]([C@@H](C)O)C(=O)N1)[C@@H](C)O)C(=O)N1CCC[C@H]1C(=O)N[C@@H](CO)C(=O)N[C@@H](CO)C(=O)N[C@H](C(=O)N[C@@H](CC(N)=O)C(=O)N[C@H](C(=O)NCC(=O)N1CCC[C@H]1C(=O)N[C@@H](Cc1c[nH]cn1)C(=O)N[C@H](C(=O)N[C@@H](Cc1ccc(O)cc1)C(N)=O)[C@@H](C)O)C(C)C)[C@@H](C)O, also called compound 58) |
| 2.09 nM | K([AEEA-γGlu-C20 diacid])CNTATCATQRLANFLRHSSPNFGAIPSPTNVGPNTY-NH2 (disulfide 2-7; N-terminus assumed; SMILES CC[C@H](C)[C@H](NC(=O)[C@H](C)NC(=O)CNC(=O)[C@H](Cc1ccccc1)NC(=O)[C@H](CC(N)=O)NC(=O)[C@@H]1CCCN1C(=O)[C@H](CO)NC(=O)[C@H](CO)NC(=O)[C@H](Cc1c[nH]cn1)NC(=O)[C@H](CCCNC(=N)N)NC(=O)[C@H](CC(C)C)NC(=O)[C@H](Cc1ccccc1)NC(=O)[C@H](CC(N)=O)NC(=O)[C@H](C)NC(=O)[C@H](CC(C)C)NC(=O)[C@H](CCCNC(=N)N)NC(=O)[C@H](CCC(N)=O)NC(=O)[C@@H](NC(=O)[C@H](C)NC(=O)[C@@H]1CSSC[C@H](NC(=O)[C@@H](N)CCCCNC(=O)COCCOCCNC(=O)CC[C@H](NC(=O)CCCCCCCCCCCCCCCCCCC(=O)O)C(=O)O)C(=O)N[C@@H](CC(N)=O)C(=O)N[C@@H]([C@@H](C)O)C(=O)N[C@@H](C)C(=O)N[C@@H]([C@@H](C)O)C(=O)N1)[C@@H](C)O)C(=O)N1CCC[C@H]1C(=O)N[C@@H](CO)C(=O)N1CCC[C@H]1C(=O)N[C@H](C(=O)N[C@@H](CC(N)=O)C(=O)N[C@H](C(=O)NCC(=O)N1CCC[C@H]1C(=O)N[C@@H](CC(N)=O)C(=O)N[C@H](C(=O)N[C@@H](Cc1ccc(O)cc1)C(N)=O)[C@@H](C)O)C(C)C)[C@@H](C)O, also called compound 56) |

Second part, the binder before the results:

| Binder | IC50 |
| --- | --- |
| K([AEEA-γGlu-C20 diacid])CNTATCATQRLANFLRHSSPNFGAIPPSTNVGPNTY-NH2 (disulfide 2-7; N-terminus assumed; SMILES CC[C@H](C)[C@H](NC(=O)[C@H](C)NC(=O)CNC(=O)[C@H](Cc1ccccc1)NC(=O)[C@H](CC(N)=O)NC(=O)[C@@H]1CCCN1C(=O)[C@H](CO)NC(=O)[C@H](CO)NC(=O)[C@H](Cc1c[nH]cn1)NC(=O)[C@H](CCCNC(=N)N)NC(=O)[C@H](CC(C)C)NC(=O)[C@H](Cc1ccccc1)NC(=O)[C@H](CC(N)=O)NC(=O)[C@H](C)NC(=O)[C@H](CC(C)C)NC(=O)[C@H](CCCNC(=N)N)NC(=O)[C@H](CCC(N)=O)NC(=O)[C@@H](NC(=O)[C@H](C)NC(=O)[C@@H]1CSSC[C@H](NC(=O)[C@@H](N)CCCCNC(=O)COCCOCCNC(=O)CC[C@H](NC(=O)CCCCCCCCCCCCCCCCCCC(=O)O)C(=O)O)C(=O)N[C@@H](CC(N)=O)C(=O)N[C@@H]([C@@H](C)O)C(=O)N[C@@H](C)C(=O)N[C@@H]([C@@H](C)O)C(=O)N1)[C@@H](C)O)C(=O)N1CCC[C@H]1C(=O)N1CCC[C@H]1C(=O)N[C@@H](CO)C(=O)N[C@H](C(=O)N[C@@H](CC(N)=O)C(=O)N[C@H](C(=O)NCC(=O)N1CCC[C@H]1C(=O)N[C@@H](CC(N)=O)C(=O)N[C@H](C(=O)N[C@@H](Cc1ccc(O)cc1)C(N)=O)[C@@H](C)O)C(C)C)[C@@H](C)O, also called compound 55) | 2.17 nM |
| K([AEEA-γGlu-C20 diacid])CNTATCATQRLANFLRHSSPNFGAIPSSTNVGPNTY-NH2 (disulfide 2-7; N-terminus assumed; SMILES CC[C@H](C)[C@H](NC(=O)[C@H](C)NC(=O)CNC(=O)[C@H](Cc1ccccc1)NC(=O)[C@H](CC(N)=O)NC(=O)[C@@H]1CCCN1C(=O)[C@H](CO)NC(=O)[C@H](CO)NC(=O)[C@H](Cc1c[nH]cn1)NC(=O)[C@H](CCCNC(=N)N)NC(=O)[C@H](CC(C)C)NC(=O)[C@H](Cc1ccccc1)NC(=O)[C@H](CC(N)=O)NC(=O)[C@H](C)NC(=O)[C@H](CC(C)C)NC(=O)[C@H](CCCNC(=N)N)NC(=O)[C@H](CCC(N)=O)NC(=O)[C@@H](NC(=O)[C@H](C)NC(=O)[C@@H]1CSSC[C@H](NC(=O)[C@@H](N)CCCCNC(=O)COCCOCCNC(=O)CC[C@H](NC(=O)CCCCCCCCCCCCCCCCCCC(=O)O)C(=O)O)C(=O)N[C@@H](CC(N)=O)C(=O)N[C@@H]([C@@H](C)O)C(=O)N[C@@H](C)C(=O)N[C@@H]([C@@H](C)O)C(=O)N1)[C@@H](C)O)C(=O)N1CCC[C@H]1C(=O)N[C@@H](CO)C(=O)N[C@@H](CO)C(=O)N[C@H](C(=O)N[C@@H](CC(N)=O)C(=O)N[C@H](C(=O)NCC(=O)N1CCC[C@H]1C(=O)N[C@@H](CC(N)=O)C(=O)N[C@H](C(=O)N[C@@H](Cc1ccc(O)cc1)C(N)=O)[C@@H](C)O)C(C)C)[C@@H](C)O, also called compound 50) | 1.38 nM |
| K([AEEA-γGlu-C20 diacid])CNTATCATQRLANFLRHSSPNFGAIPSPTPVGSNTY-NH2 (disulfide 2-7; N-terminus assumed; SMILES CC[C@H](C)[C@H](NC(=O)[C@H](C)NC(=O)CNC(=O)[C@H](Cc1ccccc1)NC(=O)[C@H](CC(N)=O)NC(=O)[C@@H]1CCCN1C(=O)[C@H](CO)NC(=O)[C@H](CO)NC(=O)[C@H](Cc1c[nH]cn1)NC(=O)[C@H](CCCNC(=N)N)NC(=O)[C@H](CC(C)C)NC(=O)[C@H](Cc1ccccc1)NC(=O)[C@H](CC(N)=O)NC(=O)[C@H](C)NC(=O)[C@H](CC(C)C)NC(=O)[C@H](CCCNC(=N)N)NC(=O)[C@H](CCC(N)=O)NC(=O)[C@@H](NC(=O)[C@H](C)NC(=O)[C@@H]1CSSC[C@H](NC(=O)[C@@H](N)CCCCNC(=O)COCCOCCNC(=O)CC[C@H](NC(=O)CCCCCCCCCCCCCCCCCCC(=O)O)C(=O)O)C(=O)N[C@@H](CC(N)=O)C(=O)N[C@@H]([C@@H](C)O)C(=O)N[C@@H](C)C(=O)N[C@@H]([C@@H](C)O)C(=O)N1)[C@@H](C)O)C(=O)N1CCC[C@H]1C(=O)N[C@@H](CO)C(=O)N1CCC[C@H]1C(=O)N[C@H](C(=O)N1CCC[C@H]1C(=O)N[C@H](C(=O)NCC(=O)N[C@@H](CO)C(=O)N[C@@H](CC(N)=O)C(=O)N[C@H](C(=O)N[C@@H](Cc1ccc(O)cc1)C(N)=O)[C@@H](C)O)C(C)C)[C@@H](C)O, also called compound 54) | 4.38 nM |
